Experimental data taken from patent US20250064852A1 (University of Pennsylvania, published 2025).

How the values were obtained:
human CD5 = biological target: T1, human CD5 (human, UniProt P06127 25-495); assay: cell microarray (Retrogenix): labelled CAR T cells on fixed HEK293 cells expressing human membrane proteins; library and confirmation screen
T1 construct: whole, on cells; also called primary target CD5
T1 sequence (looked up): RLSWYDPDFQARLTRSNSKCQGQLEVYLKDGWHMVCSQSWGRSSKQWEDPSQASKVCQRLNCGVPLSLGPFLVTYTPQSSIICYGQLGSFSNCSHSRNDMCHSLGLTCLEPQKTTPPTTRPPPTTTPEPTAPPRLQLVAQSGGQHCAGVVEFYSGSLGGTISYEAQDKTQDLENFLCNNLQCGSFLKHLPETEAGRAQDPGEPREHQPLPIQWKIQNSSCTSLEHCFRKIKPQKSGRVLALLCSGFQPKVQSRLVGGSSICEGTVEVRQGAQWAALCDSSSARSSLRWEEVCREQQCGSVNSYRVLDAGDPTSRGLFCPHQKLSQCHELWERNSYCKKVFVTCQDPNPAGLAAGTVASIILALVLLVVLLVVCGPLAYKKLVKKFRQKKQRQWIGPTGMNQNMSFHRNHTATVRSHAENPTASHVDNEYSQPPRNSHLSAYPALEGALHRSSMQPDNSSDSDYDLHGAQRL
Description: CART5 on- and off-targeting specificity analysis: For a library screen, CD5 KO CART5 cells were fluorescently labelled and screened for binding against fixed HEK293 cells/slides expressing 5828 human plasma membrane proteins and cell surface tethered human secreted proteins+398 human heterodimers in duplicates (18 slide sets, n=2 slides per slide set, 3.2×10⁷ cells/slide). In total, 22 primary hits (duplicate spots) were identified by analyzing fluorescence (Alexa Fluor 647 and ZsGreen1) on ImageQuant. There were a range of intensities (signal to background) from very weak to strong. A confirmation screen was performed by testing Mock KO UTD and CD5 KO CART5 cell binding against all 22 hits in duplicate on new slides. Library and confirmation screens as well as analyses were performed at Retrogenix, Charles River Laboratories.

[1] = biological target: T2, recombinant human CD5 protein conjugated to a polyhistidine (His) tag at the C-terminus (Sino Biologicals); … (human, UniProt P06127 25-372); assay: flow cytometry on CAR T cells, APC anti-6x His-tag secondary antibody
T2 construct: Bought reagent; also called recombinant CD5 protein; not shown: C-terminal polyhistidine tag
T2 sequence (looked up): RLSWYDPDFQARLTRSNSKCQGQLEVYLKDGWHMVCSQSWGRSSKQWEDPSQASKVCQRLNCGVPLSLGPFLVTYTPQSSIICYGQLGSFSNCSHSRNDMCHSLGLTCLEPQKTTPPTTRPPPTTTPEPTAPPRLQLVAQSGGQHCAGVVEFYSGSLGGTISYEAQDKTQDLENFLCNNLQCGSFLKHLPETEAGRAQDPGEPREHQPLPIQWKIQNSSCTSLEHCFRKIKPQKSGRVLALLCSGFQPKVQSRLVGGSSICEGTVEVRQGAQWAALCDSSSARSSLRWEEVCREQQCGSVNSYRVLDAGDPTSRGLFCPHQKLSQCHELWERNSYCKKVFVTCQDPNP
Description: General flow cytometry: Cells were resuspended in FACS staining buffer (phosphate buffered saline (PBS)+2% FBS) using one or more of the following antibodies: CD5 (UCHT2; BioLegend; Cat #300612), CD4, CD8 (RPA-T8; BD Biosciences; Cat #563795), CD45RA (L48; BD Biosciences; Cat #347723), CCR7 (G043H7; BioLegend; Cat #353214), PD1 (EH12.1; BD Biosciences; Cat #562516), LAG3 (3DS223H; Invitrogen; Cat #11-2239-42), CD3 (UCHT1; BD Biosciences; Cat #565119 or OKT3; BioLegend; Cat #317334), hCD45 (2D1; BioLegend; Cat #368522), or mCD45. CAR5 was detected by incubating cells with recombinant human CD5 protein conjugated to a polyhistidine (His) tag at the C-terminus (Sino Biologicals; Cat #11027-H08H) followed by an Allophycocyanin (APC) anti-6× His-tag secondary antibody (Abcam; Cat #ab72579). CARmeso was detected using a Biotin-SP goat anti-human F(ab′)₂ antibody (Jackson ImmunoResearch; Cat #109-066-097) followed by an R-Phycoerythrin (PE) streptavidin secondary antibody (Jackson ImmunoResearch; Cat #016-110-084). All changes in overall tumor or T cell counts reflected by absolute cell counts were determined using Flow-Count Fluorospheres (Beckman; Cat #754053). Cell viability was established using ViaKrome 808 Fixable Viability Dye (Beckman; Cat #C36628) and data were acquired on an LSRII Fortessa Cytometer (BD) or CytoFlex LX Flow Cytometer (Beckman). […]

B1: CD5-17H2L-3054 CAR (anti-CD5 chimeric antigen receptor, clone #17, heavy-to-light chain orientation) (other)
chain: GSEVQLVESGPGLVQPSQSLSITCTVSGFSLTNYDVHWVRQSPGKGLEWLGVIWNYGNTDYNAAFISRLSIRKDSSKSQVFFTMSSLQTPDTAIYYCARNHGDGYYNWYFDVWGTGTTVTVSSGGGGSGGGGSGGGGSNIVLTQSPSSLSESLGGKVTITCKASQDINKYIAWYQYKPGKGPRLLIHYTSTLQPGIPSRFSGSGSGRDYSFSISNLEPEDIATYYCLQYDNLWTFGGGTKLEIKSRTTTPAPRPPTPAPTIASQPLSLRPEACRPAAGGAVHTRGLDFACDIYIWAPLAGTCGVLLLSLVITLYCHMKRGRKKLLYIFKQPFMRPVQTTQEEDGCSCRFPEEEEGGCELTSRVKFSRSADAPAYQQGQNQLYNELNLGRREEYDVLDKRRGRDPEMGGKPRRKNPQEGLYNELQKDKMAEAYSEIGMKGERRRGKGHDGLYQGLSTATKDTYDALHMQALPPR
notes: also called CAR5; anti-CD5 CAR
B1: binds (human CD5); binds [1].
